{"source": "paper doi:10.1101/2025.08.07.669073", "about": "(bioRxiv, 2025)", "molecules": {"B1": {"name": "yeast Emc3, subunit in the recombinant EMC:Spf1 complex (natural protein)", "chain": "MLLDDQLKYWVLLPISIVMVLTGVLKQYIMTLITGSSANEAQPRVKLTEWQYLQWAQLLIGNGGNLSSDAFAAKKEFLVKDLTEERHLAKAKQQDGSQAGEVPNPFNDPSMSNAMMNMAKGNMASFIPQTIIMWWVNHFFAGFILMQLPFPLTAKFKEMLQTGIICQDLDVRWVSSISWYFISVLGLNPVYNLIGLNDQDMGIQAGIGGPQGPQGPPQSQVDKAMHAMANDLTIIQHETCLDNVEQRVLKQYM"}, "B2": {"name": "yeast Emc10, subunit in the recombinant EMC:Spf1 complex (natural protein)", "chain": "ADILQLSYSDDAKDAIPLGTFEIDSTSDGNVTVTTVNIQDVEVSGEYCLNAQIEGKLDMPCFSYMKLRTPLKYDLIVDVDEDNEVKQVSLSYDETNDAITATVRYPEAGPTAPVTKLKKKTKTYADKKASKNKDGSTAQFEEDEEVKEVSWFQKNWKMLLLGLLIYNFVAGSAKKQQQGGAGADQKTE"}, "B3": {"name": "yeast Emc4, subunit in the recombinant EMC:Spf1 complex (natural protein)", "chain": "MSEQEPYEWAKHLLDTKYIEKYNIQNSNTLPSPPGFEGNSSKGNVTRKQQDATSQTTSLAQKNQITVLQVQKAWQIALQPAKSIPMNIFMSYMSGTSLQIIPIMTALMLLSGPIKAIFSTRSAFKPVLGNKATQSQVQTAMFMYIVFQGVLMYIGYRKLNSMGLIPNAKGDWLPWERIAHYNNGLQWFSD"}, "B4": {"name": "Spf1 with C-terminal triple HA-tag, endogenous locus, S. cerevisiae (natural protein)", "chain": "MTKKSFVSSPIVRDSTLLVPKSLIAKPYVLPFFPLYATFAQLYFQQYDRYIKGPEWTFVYLGTLVSLNILVMLMPAWNVKIKAKFNYSTTKNVNEATHILIYTTPNNGSDGIVEIQRVTEAGSLQTFFQFQKKRFLWHENEQVFSSPKFLVDESPKIGDFQKCKGHSGDLTHLKRLYGENSFDIPIPTFMELFKEHAVAPLFVFQVFCVALWLLDEFWYYSLFNLFMIISMEAAAVFQRLTALKEFRTMGIKPYTINVFRNKKWVALQTNELLPMDLVSITRTAEESAIPCDLILLDGSAIVNEAMLSGESTPLLKESIKLRPSEDNLQLDGVDKIAVLHGGTKALQVTPPEHKSDIPPPPDGGALAIVTKTGFETSQGSLVRVMIYSAERVSVDNKEALMFILFLLIFAVIASWYVWVEGTKMGRIQSKLILDCILIITSVVPPELPMELTMAVNSSLAALAKFYVYCTEPFRIPFAGRIDVCCFDKTGTLTGEDLVFEGLAGISADSENIRHLYSAAEAPESTILVIGAAHALVKLEDGDIVGDPMEKATLKAVGWAVERKNSNYREGTGKLDIIRRFQFSSALKRSASIASHNDALFAAVKGAPETIRERLSDIPKNYDEIYKSFTRSGSRVLALASKSLPKMSQSKIDDLNRDDVESELTFNGFLIFHCPLKDDAIETIKMLNESSHRSIMITGDNPLTAVHVAKEVGIVFGETLILDRAGKSDDNQLLFRDVEETVSIPFDPSKDTFDHSKLFDRYDIAVTGYALNALEGHSQLRDLLRHTWVYARVSPSQKEFLLNTLKDMGYQTLMCGDGTNDVGALKQAHVGIALLNGTEEGLKKLGEQRRLEGMKMMYIKQTEFMARWNQPQPPVPEPIAHLFPPGPKNPHYLKALESKGTVITPEIRKAVEEANSKPVEVIKPNGLSEKKPADLASLLLNSAGDAQGDEAPALKLGDASCAAPFTSKLANVSAVTNIIRQGRCALVNTIQMYKILALNCLISAYSLSIIYMAGVKFGDGQATVSGLLLSVCFLSISRGKPLEKLSKQRPQSGIFNVYIMGSILSQFAVHIATLVYITTEIYKLEPREPQVDLEKEFAPSLLNTGIFIIQLVQQVSTFAVNYQGEPFRENIRSNKGMYYGLLGVTGLALASATEFLPELNEAMKFVPMTDDFKIKLTLTLLLDFFGSWGVEHFFKFFFMDDKPSDISVQQVKIASK"}, "B5": {"name": "yeast Spf1 E1087A, recombinant from insect cells (natural protein)", "chain": "B4 chain with E1087A"}}, "key": {"[1]": {"target": "human ATP13A1 mutated at the border between the membrane region and the ER lumen (human) (UniProt Q9HD20)", "sequence (Q9HD20 whole entry, change not shown)": "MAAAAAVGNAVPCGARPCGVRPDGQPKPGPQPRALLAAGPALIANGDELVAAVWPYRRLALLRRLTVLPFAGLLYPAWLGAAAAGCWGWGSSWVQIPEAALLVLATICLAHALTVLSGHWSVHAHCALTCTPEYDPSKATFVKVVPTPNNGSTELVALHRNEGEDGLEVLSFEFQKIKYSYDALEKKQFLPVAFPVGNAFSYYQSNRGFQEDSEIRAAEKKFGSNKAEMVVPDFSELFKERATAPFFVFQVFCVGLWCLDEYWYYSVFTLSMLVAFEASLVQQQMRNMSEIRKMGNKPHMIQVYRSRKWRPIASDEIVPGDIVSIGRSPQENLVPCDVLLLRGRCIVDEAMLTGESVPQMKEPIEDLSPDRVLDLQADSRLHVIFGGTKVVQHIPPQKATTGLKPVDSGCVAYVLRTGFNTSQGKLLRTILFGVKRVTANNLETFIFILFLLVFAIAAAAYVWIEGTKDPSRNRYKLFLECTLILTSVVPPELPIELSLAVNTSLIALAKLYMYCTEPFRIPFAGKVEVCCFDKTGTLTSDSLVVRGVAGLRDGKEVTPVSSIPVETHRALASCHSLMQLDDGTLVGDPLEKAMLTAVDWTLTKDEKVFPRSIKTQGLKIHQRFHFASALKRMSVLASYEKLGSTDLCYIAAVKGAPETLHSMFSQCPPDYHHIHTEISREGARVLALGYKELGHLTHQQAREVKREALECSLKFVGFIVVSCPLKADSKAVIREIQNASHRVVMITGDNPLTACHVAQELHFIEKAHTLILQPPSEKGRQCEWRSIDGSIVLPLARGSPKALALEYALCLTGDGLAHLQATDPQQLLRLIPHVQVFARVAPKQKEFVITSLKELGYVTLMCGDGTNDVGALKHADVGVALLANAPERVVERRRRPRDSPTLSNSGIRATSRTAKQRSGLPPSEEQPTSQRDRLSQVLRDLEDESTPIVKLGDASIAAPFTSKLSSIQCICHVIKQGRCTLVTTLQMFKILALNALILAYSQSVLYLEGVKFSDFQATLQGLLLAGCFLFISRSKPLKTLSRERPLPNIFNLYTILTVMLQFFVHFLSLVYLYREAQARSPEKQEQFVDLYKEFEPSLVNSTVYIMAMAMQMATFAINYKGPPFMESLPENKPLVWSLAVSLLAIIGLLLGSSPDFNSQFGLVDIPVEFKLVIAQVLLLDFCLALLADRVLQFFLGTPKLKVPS", "assay": "co-IP"}, "[2]": {"target": "T1, yeast Spf1-FLAG, recombinant from insect cells (S. cerevisiae, UniProt P39986)", "T1 sequence": "B4 chain", "assay": "cryo-EM structure"}, "[3]": {"target": "yeast EMC with Emc5-GFP, Emc7 deleted (S. cerevisiae, UniProt P25574;P47133;P36039;P53073;P40540;Q12431;Q12025)", "sequence (P25574 25-760, stated change not applied, chain 1 of 4)": "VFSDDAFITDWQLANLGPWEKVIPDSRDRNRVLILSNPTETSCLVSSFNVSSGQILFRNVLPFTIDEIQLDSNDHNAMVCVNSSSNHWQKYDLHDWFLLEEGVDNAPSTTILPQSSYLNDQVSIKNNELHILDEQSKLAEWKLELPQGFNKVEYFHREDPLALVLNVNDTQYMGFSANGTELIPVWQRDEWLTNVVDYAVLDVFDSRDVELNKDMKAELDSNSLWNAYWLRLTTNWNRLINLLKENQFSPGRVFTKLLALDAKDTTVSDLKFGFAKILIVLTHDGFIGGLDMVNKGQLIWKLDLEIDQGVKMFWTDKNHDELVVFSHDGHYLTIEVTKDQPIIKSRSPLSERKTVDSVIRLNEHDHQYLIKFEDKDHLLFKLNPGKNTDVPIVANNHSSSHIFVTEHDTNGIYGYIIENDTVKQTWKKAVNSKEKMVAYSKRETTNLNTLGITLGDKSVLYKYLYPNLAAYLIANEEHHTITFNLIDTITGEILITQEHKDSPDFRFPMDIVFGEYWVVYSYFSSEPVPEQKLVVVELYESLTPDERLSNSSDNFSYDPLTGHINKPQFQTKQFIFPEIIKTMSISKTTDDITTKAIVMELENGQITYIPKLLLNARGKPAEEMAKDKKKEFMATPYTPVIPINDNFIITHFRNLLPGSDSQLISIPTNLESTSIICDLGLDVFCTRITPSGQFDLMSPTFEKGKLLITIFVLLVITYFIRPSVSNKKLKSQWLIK", "sequence (P47133 whole entry, stated change not applied, chain 2 of 4)": "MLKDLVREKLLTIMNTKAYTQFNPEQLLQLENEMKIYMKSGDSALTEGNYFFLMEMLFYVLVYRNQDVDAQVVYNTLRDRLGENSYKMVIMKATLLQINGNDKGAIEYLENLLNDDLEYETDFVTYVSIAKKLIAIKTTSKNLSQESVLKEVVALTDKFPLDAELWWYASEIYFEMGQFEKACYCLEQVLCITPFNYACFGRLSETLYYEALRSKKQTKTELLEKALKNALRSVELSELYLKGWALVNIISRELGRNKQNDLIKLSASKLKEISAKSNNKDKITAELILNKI", "sequence (P40540 whole entry, stated change not applied, chain 5 of 4)": "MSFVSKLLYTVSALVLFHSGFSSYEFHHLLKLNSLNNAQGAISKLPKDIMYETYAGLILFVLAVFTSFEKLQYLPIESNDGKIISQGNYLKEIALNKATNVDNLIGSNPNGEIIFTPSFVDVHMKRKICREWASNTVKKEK", "sequence (Q12431 whole entry, stated change not applied, chain 6 of 4)": "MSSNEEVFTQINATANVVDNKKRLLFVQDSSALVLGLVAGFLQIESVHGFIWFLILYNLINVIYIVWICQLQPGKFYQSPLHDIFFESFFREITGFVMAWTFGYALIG", "assay": "co-IP"}, "[4]": {"target": "yeast EMC with Emc5-GFP, Emc10 deleted (S. cerevisiae) (UniProt P25574)", "assay": "co-IP"}, "[5]": {"target": "yeast EMC with Emc5-TSII, recombinant from insect cells (S. cerevisiae) (UniProt P25574)", "assay": "co-IP"}}, "note": "Positions count from the first letter of the chain named. Names may count otherwise."}
{"molecule": "human EMC, endogenous, HEK293T (from UniProt Q8N766;Q15006;Q9P0I2;Q5J8M3;Q8N4V1;Q9BV81;Q9NPA0;O43402;Q5UCC4) (complex)", "values": [{"measurement": "interaction with the hEMC relative to wt", "setting": "[1]", "value": "0.5 of wt"}]}
{"molecule": "B1", "values": [{"measurement": "binding result", "setting": "[2]", "value": "binds"}]}
{"molecule": "B2", "values": [{"measurement": "binding result", "setting": "[2]", "value": "binds"}]}
{"molecule": "B3", "values": [{"measurement": "binding result", "setting": "[2]", "value": "binds"}]}
{"molecule": "B4", "values": [{"measurement": "Spf1 to Emc5 ratio in the IP, percent of wt", "setting": "[3]", "value": 40, "unit": "%"}, {"measurement": "Spf1 to Emc5 ratio in the IP, percent of wt", "setting": "[4]", "value": 48, "unit": "%"}]}
{"molecule": "B5", "values": [{"measurement": "EMC:Spf1 interaction, percent of wt", "setting": "[5]", "value": 30, "unit": "%"}]}
